From paper PMC8630788

Columns and labels:
[1] = biological target: optimized bait-PAR-Grb2, GFP-fused (with inserted flexible linker sequences between fluorophore and Grb2) (UniProt P62993); test: subcellular micropatterning (bait-prey copatterning, TIRF microscopy); live HeLa cells co-expressing bait-PAR-Grb2 and fluorescent prey on anti-HA antibody patterned COP substrate; bait-normalized prey contrast; after EGF stimulation (170 nM, 10 min)
[2] = biological target: optimized bait-PAR-Grb2, GFP-fused (with inserted flexible linker sequences between fluorophore and Grb2) (UniProt P62993); test: TIR-FRAP on bait micropatterns; live HeLa cells co-transfected with bait-PAR-Grb2 and prey on anti-HA patterns; EGF (170 nM) for at least 5 min before FRAP; single patterns bleached for 500 ms; bi-exponential, diffusion-uncoupled two-component fit
[3] = biological target: optimized bait-PAR-Grb2, GFP-fused (with inserted flexible linker sequences between fluorophore and Grb2) (UniProt P62993); test: subcellular micropatterning (bait-prey copatterning, TIRF microscopy); live HeLa cells co-expressing bait-PAR-Grb2 and fluorescent prey on anti-HA antibody patterned COP substrate; bait-normalized prey contrast; basal conditions, before EGF
[4] = biological target: optimized bait-PAR-Grb2, GFP-fused (with inserted flexible linker sequences between fluorophore and Grb2) (UniProt P62993); test: as above; remark: listed apart in the source
[5] = biological target: optimized bait-PAR-Grb2, RFP-fused (UniProt P62993); test: subcellular micropatterning (bait-prey copatterning, TIRF microscopy); competition in live HeLa cells: bait-PAR-Grb2-RFP and Gab1-GFP on anti-HA patterns, cyclo(YpVNFΦrpPRR) added to the cells (100 μM over time; dose-response); bait-normalized contrast set between 0 and 100%
[6] = biological target: optimized bait-PAR-Grb2, RFP-fused (UniProt P62993); test: subcellular micropatterning (bait-prey copatterning, TIRF microscopy); competition in live HeLa cells: bait-PAR-Grb2-RFP and GFP-fused SOS1 on anti-HA patterns, cyclo(YpVNFΦrpPRR) added to the cells (100 μM over time; dose-response); bait-normalized contrast set between 0 and 100%
[7] = biological target: optimized bait-PAR-Grb2, RFP-fused, P62993; test: subcellular micropatterning (bait-prey copatterning, TIRF microscopy); live HeLa cells with bait-PAR-Grb2-RFP and GFP-fused Gab1 or SOS1 on anti-HA patterns, treated with 10 μM actinomycin D, copatterning followed over time; settings: remark: other sources report otherwise
[8] = biological target: optimized bait-PAR-Grb2, RFP-fused, P62993; test: TIR-FRAP on bait micropatterns; live HeLa cells co-transfected with bait-PAR-Grb2 and prey on anti-HA patterns; EGF (170 nM) for at least 5 min before FRAP; single patterns bleached for 500 ms; bi-exponential, diffusion-uncoupled two-component fit; settings: remark: other sources report otherwise
[9] = biological target: optimized bait-PAR-Grb2, RFP-fused, P62993; test: subcellular micropatterning (bait-prey copatterning, TIRF microscopy); live HeLa cells co-expressing bait-PAR-Grb2 and fluorescent prey on anti-HA antibody patterned COP substrate; bait-normalized prey contrast; after EGF stimulation (170 nM, 10 min); settings: remark: other sources report otherwise
[10] = biological target: optimized bait-PAR-Grb2, RFP-fused, P62993; test: subcellular micropatterning (bait-prey copatterning, TIRF microscopy); live HeLa cells co-expressing bait-PAR-Grb2 and fluorescent prey on anti-HA antibody patterned COP substrate; bait-normalized prey contrast; basal conditions, before EGF; settings: remark: other sources report otherwise

In the case of “SHC-transforming protein 1 (Shc1), RFP-fused (from UniProt P29353 1-583) (natural protein)”, the bait-normalized fluorescence contrast <c prey/bait> [1] is reported as 0.45, the half-time of dissociation (FRAP) [2] is reported as 10 s and the k slow (exchange rate, FRAP) [2] is reported as 0.103 s⁻¹. The bait-normalized fluorescence contrast <c prey/bait> [3] was 0.21 and the bait-normalized fluorescence contrast <c prey/bait> [4] was 0.14.

“cell-permeable cyclic peptide cyclo(YpVNFΦrpPRR)” gave an EC50 [5] of 68 µM, a dissociation half-life of Gab1 from Grb2 at 100 μM peptide [5] of 42 s and a maximum prey dissociation at 100 μM peptide (Gab1 from Grb2) [5] of 70 to 75%. It also gave an EC50 [6] of 63 µM, a dissociation half-life of SOS1 from Grb2 at 100 μM peptide [6] of 36 s and a maximum prey dissociation at 100 μM peptide (SOS1 from Grb2) [6] of 70 to 75%.

B1: son of sevenless protein 1 (SOS1), GFP-fused, Q07889 1-1333 (natural protein)
chain: MQAQQLPYEFFSEENAPKWRGLLVPALKKVQGQVHPTLESNDDALQYVEELILQLLNMLCQAQPRSASDVEERVQKSFPHPIDKWAIADAQSAIEKRKRRNPLSLPVEKIHPLLKEVLGYKIDHQVSVYIVAVLEYISADILKLVGNYVRNIRHYEITKQDIKVAMCADKVLMDMFHQDVEDINILSLTDEEPSTSGEQTYYDLVKAFMAEIRQYIRELNLIIKVFREPFVSNSKLFSANDVENIFSRIVDIHELSVKLLGHIEDTVEMTDEGSPHPLVGSCFEDLAEELAFDPYESYARDILRPGFHDRFLSQLSKPGAALYLQSIGEGFKEAVQYVLPRLLLAPVYHCLHYFELLKQLEEKSEDQEDKECLKQAITALLNVQSGMEKICSKSLAKRRLSESACRFYSQQMKGKQLAIKKMNEIQKNIDGWEGKDIGQCCNEFIMEGTLTRVGAKHERHIFLFDGLMICCKSNHGQPRLPGASNAEYRLKEKFFMRKVQINDKDDTNEYKHAFEIILKDENSVIFSAKSAEEKNNWMAALISLQYRSTLERMLDVTMLQEEKEEQMRLPSADVYRFAEPDSEENIIFEENMQPKAGIPIIKAGTVIKLIERLTYHMYADPNFVRTFLTTYRSFCKPQELLSLIIERFEIPEPEPTEADRIAIENGDQPLSAELKRFRKEYIQPVQLRVLNVCRHWVEHHFYDFERDAYLLQRMEEFIGTVRGKAMKKWVESITKIIQRKKIARDNGPGHNITFQSSPPTVEWHISRPGHIETFDLLTLHPIEIARQLTLLESDLYRAVQPSELVGSVWTKEDKEINSPNLLKMIRHTTNLTLWFEKCIVETENLEERVAVVSRIIEILQVFQELNNFNGVLEVVSAMNSSPVYRLDHTFEQIPSRQKKILEEAHELSEDHYKKYLAKLRSINPPCVPFFGIYLTNILKTEEGNPEVLKRHGKELINFSKRRKVAEITGEIQQYQNQPYCLRVESDIKRFFENLNPMGNSMEKEFTDYLFNKSLEIEPRNPKPLPRFPKKYSYPLKSPGVRPSNPRPGTMRHPTPLQQEPRKISYSRIPESETESTASAPNSPRTPLTPPPASGASSTTDVCSVFDSDHSSPFHSSNDTVFIQVTLPHGPRSASVSSISLTKGTDEVPVPPPVPPRRRPESAPAESSPSKIMSKHLDSPPAIPPRQPTSKAYSPRYSISDRTSISDPPESPPLLPPREPVRTPDVFSSSPLHLQPPPLGKKSDHGNAFFPNSPSPFTPPPPQTPSPHGTRRHLPSPPLTQEVDLHSIAGPPVPPRQSTSQHIPKLPPKTYKREHTHPSMHRDGPPLLENAHSS
In the case of B1, the dissociation half-life with 10 μM actinomycin D [7] is reported as 84 s, the reduction of copatterning with 10 μM actinomycin D [7] is reported as 25% and the half-time of dissociation (FRAP) [8] is reported as 13 s. The k slow (exchange rate, FRAP) [8] was 0.074 s⁻¹, the bait-normalized fluorescence contrast <c prey/bait> [9] was 0.56 and the bait-normalized fluorescence contrast <c prey/bait> [10] was 0.55.
